# Source: PMC12232725
# How the values were obtained:
# [1] = target: cGAS (human, UniProt Q8N884 1-522)
# [2] = target: T1, N protein (unphosphorylated, lambda-phosphatase treated) (SARS-CoV-2 (isolate Wuhan-Hu-1), UniProt P0DTC9 1-419); assay: MST; apparent; Hill nH = 1.6 +/- 0.1; conditions: protein: recombinant; tags: His6-MBP tag cleaved (3C); linker remnant possible; chain copies: 2; label: Cy5 at 5' end of forward strand; blunt
# [3] = target: T1, N protein (unphosphorylated, …); assay: MST; apparent; Hill nH = 1.7 +/- 0.4; conditions: protein: recombinant; tags: His6-MBP tag cleaved (3C); linker remnant possible; chain copies: 2; stem loop
# [4] = target: biotin-AviTag-cGASCD (human, UniProt Q8N884 158-522); assay: BLI; N protein first adds signal, then accelerates dissociation; conditions: protein: recombinant; tags: AviTag, biotinylated; blunt
binder,measurement,setting,value
50-bp DNA-Cy5 (dsDNA) DNA 1: GATCTCTTGTAGATCTGTTCTCTAAACGAACTTTAAAATCTGTGTGGCTG DNA 2: CAGCCACACAGATTTTAAAGTTCGTTTAGAGAACAGATCTACAAGAGATC,binding result,[1],binds
same,Kd,[2],6.3 ± 0.3 nM
GAUCUCUUGUAGAUCUGUUCUCUAAACGAACUUUAAAAUCUGUGUGGCUG (ssRNA) [50-nt RNA-Cy5],Kd,[3],3 ± 0.4 nM
50-bp DNA (label-free) (dsDNA) DNA 1: GATCTCTTGTAGATCTGTTCTCTAAACGAACTTTAAAATCTGTGTGGCTG DNA 2: CAGCCACACAGATTTTAAAGTTCGTTTAGAGAACAGATCTACAAGAGATC,binding result,[1],binds
45-bp DNA (ISD) (dsDNA) DNA 1: TACAGATCTACTAGTGATCTATGACTGATCTGTACATGATCTACA DNA 2: TGTAGATCATGTACAGATCAGTCATAGATCACTAGTAGATCTGTA,binding result,[4],binds
